# Results published in publication PMC6472409, “Dishevelled-3 conformation dynamics analyzed by FRET-based biosensors reveals a key role of casein kinase 1” (Nature Communications, 2019).
# What was measured:
# Wnt/β-catenin pathway = assay: Dual Luciferase TopFlash/Renilla Reporter Assay; assay type: cell-based, human; details: for TopFlash relative to ctrl (= 1): Suppl. Fig. 2a; for TopFlash FlAsH III (CK1e-/-), relative to ctrl (= 1): Suppl. Fig. 4f; for TopFlash FlAsH III (CK1e-/-), relative to ctrl (= 1) / TopFlash in CK1e-/- relative to CK1e wt (= 1): CK1e-/- cells; for TopFlash relative to DVL3 wt (= 1) / TopFlash in CK1e-/- relative to CK1e wt (= 1): Fig 8d
# Description: Cells were transfected 24 h after seeding with 0.1 μg of Super8X TopFlash construct, 0.1 μg of Renilla luciferase construct, and 0.1 μg of corresponding plasmids per well for 6 h in a 24-well plate. As for the ECFP-DVL3 FIII wt stable cell lines, transfection was followed by 4 h induction of tetracycline (1 µg/ml) and 8 h treatment of CM:DMEM (1:1 ratio). For performing this assay, Promega Dual Luciferase assay kit (Promega, #E1910) was used according to the manufacturer’s instructions. Luminescence was measured by a Hidex Bioscan Plate Chameleon Luminometer. Results are depicted as the ratio of TopFlash and Renilla signal (TopFlash fold induction), which was normalized for each experiment to certain control column (normalized TopFlash fold induction). Data were analyzed by MS Excel 2007 and GraphPad Prism 6 and results were shown as the means ± S.D. (number of experiments indicated ad hoc).
# [1] = system: DVL3 membrane recruitment by FZD6 in HEK293 cells; assay: FZD6-dependent membrane recruitment of DVL3, immunofluorescence; assay type: cell-based, human; design: key to Non-recruited (DVL3 membrane recruitment): number of cells out of 100 positive cells scored; details: Fig 8c
# Text: First, we analyzed the preferred subcellular localization of DVL3 (as introduced in Fig. 2c)[10],[14]. […] Next, we investigated if DVL3 conformation correlates with the capacity of DVL3 to be recruited by FZD6, a key Wnt receptor, to the plasma membrane. For this purpose, we co-expressed FZD6 and analyzed membrane recruitment of DVL3 in FZD6-positive cells by immunofluorescence. Individual cells were categorized as: not recruited (Fig. 8b, no DVL3 in the membrane), partially recruited (clear membrane as well as cytoplasmic localization), and fully recruited (predominantly plasma membrane localization, Fig. 8c, left). […] In the last readout we analyzed the capacity of DVL3 to activate downstream Wnt/β-catenin pathway monitored by TopFlash reporter assay (Fig. 8d). […] On the other hand, under conditions that favor the open conformation both activation as well as inhibition of the Wnt/β-catenin pathway was evident.
# For immunofluorescence, cells were seeded (40,000 per well) on 24-well plates with gelatin-coated coverslips and transfected, as indicated, with 0.1 μg of each corresponding plasmid (0.3 μg of mCherry-FZD6) for 6 h. For western blotting and Dual Luciferase TopFlash/Renilla Reporter Assay, cells were seeded (60,000 per well) directly on 24-well plates with 0.1 μg of each corresponding plasmid (if not indicated otherwise) for 6 h. For coimmunoprecipitation, cells were seeded (4.4 × 10^6) on 10-cm dishes and transfected with 1 μg of each corresponding plasmid. The next day after seeding, cells were transfected using polyethyleneimine (PEI) in a stoichiometry of 6 μl of PEI per 1 μg of DNA for 6 h and were harvested 24 h after transfection. The following plasmids used in HEK293 cells have been described previously: FLAG-DVL3 wt[47], CK1ϵ wt[48], mCherry-FZD6 (ref. [37]), and dominant-negative CK1ϵ P3 (ref. [33]). The ECFP-DVL3 wt plasmid was made by Gateway Technology (via LR recombination according to the manufacturer’s instructions; Thermo Fisher Scientific, #11791020) from the donor plasmid pDONR221 DVL3 (DNASU, #FLH178665.01x) and the destination plasmid pdECFP (LMBP, #4548). The HA-DVL3 wt plasmid was made by Gateway Technology from the donor plasmid pDONR221 DVL3 (DNASU, #FLH178665.01x) and the destination plasmid pcDNA3.1 N-term HA (gift from Erich Nigg).
# Cells were seeded on gelatin-coated coverslips in 24-well plates and were transfected the next day. Cells were fixed 24 h later in fresh 4% paraformaldehyde, permeabilized with 0.5% Triton X-100, blocked with PBS/BSA/Triton/Azide buffer (PBTA) [3% (wt/vol) BSA, 0.25% Triton, 0.01% NaN3] for 1 h, and incubated overnight with primary antibodies (in dilution 1:500) in PBTA at 4 °C. The next day, the coverslips were washed in PBS and incubated with secondary antibodies conjugated to Alexa Fluor 488 (Invitrogen A11001) or/and Alexa Fluor 594 (Invitrogen A11058) (all in dilution 1:1000), washed with PBS [in case of samples containing FLAG-DVL3 WT and derived variants stained with DAPI (1:5000)], and all coverslips were mounted on microscopic slides. Cells were then visualized on an Olympus IX51 fluorescent microscope using ×40 air or ×100 oil objectives and/or an Olympus Fluoview 500 confocal laser scanning microscope IX71 using ×100 oil objective. One hundred positive cells per experiment (n = 3) were analyzed and scored according to their phenotype into two/three categories (punctae/even); or non-recruited/partially/fully recruited for FZD6-dependent recruitment of DVL3. The antibodies used were as follows: anti-FLAG M2 (Sigma-Aldrich, #F1804), anti-DVL3 (Santa Cruz, #sc-8027), anti-CK1ɛ (Santa Cruz, #sc-6471), anti-RFP (Chromotek, #5h9) and anti-GFP (Fitzgerald, #20R-GR-011).
# [2] = sensor FlAsH III, replicate of grid row r5
# [3] = sensor FlAsH III, replicate of grid row r6
# [4] = sensor FlAsH III, replicate of grid row r7
# [5] = panel of CK1e-/- comparison, wt cells, exp1
# [6] = panel of CK1e-/- comparison, wt cells, exp3
molecule,measurement,setting,value
CK1e,TopFlash relative to ctrl (= 1),"Wnt/β-catenin pathway; sensor FlAsH I, replicate of grid row r5",1.477
same,TopFlash relative to ctrl (= 1),"Wnt/β-catenin pathway; sensor FlAsH I, replicate of grid row r6",1.51
same,TopFlash relative to ctrl (= 1),"Wnt/β-catenin pathway; sensor FlAsH I, replicate of grid row r7",1.233
same,TopFlash relative to ctrl (= 1),"Wnt/β-catenin pathway; sensor FlAsH II, replicate of grid row r5",1.907
same,TopFlash relative to ctrl (= 1),"Wnt/β-catenin pathway; sensor FlAsH II, replicate of grid row r6",2.332
same,TopFlash relative to ctrl (= 1),"Wnt/β-catenin pathway; sensor FlAsH II, replicate of grid row r7",1.874
same,TopFlash relative to ctrl (= 1),Wnt/β-catenin pathway; [2],2.614
same,TopFlash relative to ctrl (= 1),Wnt/β-catenin pathway; [3],1.858
same,TopFlash relative to ctrl (= 1),Wnt/β-catenin pathway; [4],2.849
same,TopFlash relative to ctrl (= 1),"Wnt/β-catenin pathway; sensor FlAsH IV, replicate of grid row r5",3.481
same,TopFlash relative to ctrl (= 1),"Wnt/β-catenin pathway; sensor FlAsH IV, replicate of grid row r6",2.7
same,TopFlash relative to ctrl (= 1),"Wnt/β-catenin pathway; sensor FlAsH IV, replicate of grid row r7",1.4298
same,"TopFlash FlAsH III (CK1e-/-), relative to ctrl (= 1)",Wnt/β-catenin pathway; [2],2.409
same,"TopFlash FlAsH III (CK1e-/-), relative to ctrl (= 1)",Wnt/β-catenin pathway; [3],2.306
same,"TopFlash FlAsH III (CK1e-/-), relative to ctrl (= 1)",Wnt/β-catenin pathway; [4],3.0297
Ck1e,Fully recruited (DVL3 membrane recruitment),[1]; exp1,8
same,Non-recruited (DVL3 membrane recruitment),[1]; exp1,58
same,Partially recruited (DVL3 membrane recruitment),[1]; exp1,34
same,Fully recruited (DVL3 membrane recruitment),[1]; exp2,43
same,Non-recruited (DVL3 membrane recruitment),[1]; exp2,27
same,Partially recruited (DVL3 membrane recruitment),[1]; exp2,30
same,Fully recruited (DVL3 membrane recruitment),[1]; exp3,15
same,Non-recruited (DVL3 membrane recruitment),[1]; exp3,63
same,Partially recruited (DVL3 membrane recruitment),[1]; exp3,22
same,TopFlash relative to DVL3 wt (= 1),Wnt/β-catenin pathway; replicate of grid row r4,2.8
same,TopFlash relative to DVL3 wt (= 1),Wnt/β-catenin pathway; replicate of grid row r5,2.5
same,TopFlash relative to DVL3 wt (= 1),Wnt/β-catenin pathway; replicate of grid row r6,1.85
"DVL3 wt (protein, UniProt Q92997 1-716, looked up) Segment polarity protein …: MGETKIIYHLDGQETPYLVKLPLPAERVTLADFKGVLQRPSYKFFFKSMDDDFGVVKEEISDDNAKLPCFNGRVVSWLVSAEGSHPDPAPFCADNPSELPPPMERTGGIGDSRPPSFHPHAGGGSQENLDNDTETDSLVSAQRERPRRRDGPEHATRLNGTAKGERRREPGGYDSSSTLMSSELETTSFFDSDEDDSTSRFSSSTEQSSASRLMRRHKRRRRKQKVSRIERSSSFSSITDSTMSLNIITVTLNMEKYNFLGISIVGQSNERGDGGIYIGSIMKGGAVAADGRIEPGDMLLQVNEINFENMSNDDAVRVLREIVHKPGPITLTVAKCWDPSPRGCFTLPRSEPIRPIDPAAWVSHTAAMTGTFPAYGMSPSLSTITSTSSSITSSIPDTERLDDFHLSIHSDMAAIVKAMASPESGLEVRDRMWLKITIPNAFIGSDVVDWLYHNVEGFTDRREARKYASNLLKAGFIRHTVNKITFSEQCYYIFGDLCGNMANLSLHDHDGSSGASDQDTLAPLPHPGAAPWPMAFPYQYPPPPHPYNPHPGFPELGYSYGGGSASSQHSEGSRSSGSNRSGSDRRKEKDPKAGDSKSGGSGSESDHTTRSSLRGPRERAPSERSGPAASEHSHRSHHSLASSLRSHHTHPSYGPPGVPPLYGPPMLMMPPPPAAMGPPGAPPGRDLASVPPELTASRQSFRMAMGNPSEFFVDVM",Fully recruited (DVL3 membrane recruitment),"[1]; CK1e-/- cells, exp1",31
same,Non-recruited (DVL3 membrane recruitment),"[1]; CK1e-/- cells, exp1",33
same,Partially recruited (DVL3 membrane recruitment),"[1]; CK1e-/- cells, exp1",36
same,Fully recruited (DVL3 membrane recruitment),"[1]; CK1e-/- cells, exp2",16
same,Non-recruited (DVL3 membrane recruitment),"[1]; CK1e-/- cells, exp2",44
same,Partially recruited (DVL3 membrane recruitment),"[1]; CK1e-/- cells, exp2",40
same,Fully recruited (DVL3 membrane recruitment),"[1]; CK1e-/- cells, exp3",26
same,Non-recruited (DVL3 membrane recruitment),"[1]; CK1e-/- cells, exp3",50
same,Partially recruited (DVL3 membrane recruitment),"[1]; CK1e-/- cells, exp3",24
same,Fully recruited (DVL3 membrane recruitment),[1]; exp1,11
same,Non-recruited (DVL3 membrane recruitment),[1]; exp1,58
same,Partially recruited (DVL3 membrane recruitment),[1]; exp1,31
same,Fully recruited (DVL3 membrane recruitment),[1]; exp2,20
same,Non-recruited (DVL3 membrane recruitment),[1]; exp2,34
same,Partially recruited (DVL3 membrane recruitment),[1]; exp2,46
same,Fully recruited (DVL3 membrane recruitment),[1]; exp3,22
same,Non-recruited (DVL3 membrane recruitment),[1]; exp3,48
same,Partially recruited (DVL3 membrane recruitment),[1]; exp3,30
same,Fully recruited (DVL3 membrane recruitment),[1]; [5],8
same,Non-recruited (DVL3 membrane recruitment),[1]; [5],65
same,Partially recruited (DVL3 membrane recruitment),[1]; [5],27
same,Fully recruited (DVL3 membrane recruitment),[1]; [6],20
same,Non-recruited (DVL3 membrane recruitment),[1]; [6],51
same,Partially recruited (DVL3 membrane recruitment),[1]; [6],29
same,TopFlash in CK1e-/- relative to CK1e wt (= 1),Wnt/β-catenin pathway; replicate of grid row r4,0.2303
same,TopFlash in CK1e-/- relative to CK1e wt (= 1),Wnt/β-catenin pathway; replicate of grid row r5,0.1152
same,TopFlash in CK1e-/- relative to CK1e wt (= 1),Wnt/β-catenin pathway; replicate of grid row r6,0.24
same,TopFlash in CK1e-/- relative to CK1e wt (= 1),Wnt/β-catenin pathway; replicate of grid row r7,0.2094
